Measurements taken from US20240199755A1 (KYMAB, published 2024).

Legend:
BMP-2 [1] = molecular target: T1, BMP-2; assay: SPR binding level normalised to molecular weight, Tfr2-ECD immobilised; reference holo-Tf
T1 construct: The BMP-2 used in the heterotopic ossification model was from Thermo Fisher, and in the co-IP from Peprotech; Species is never stated, so all are treated as one molecule; also called bone morphogenetic protein 2
T1 sequence (P12643 283-396, species assumed, looked up): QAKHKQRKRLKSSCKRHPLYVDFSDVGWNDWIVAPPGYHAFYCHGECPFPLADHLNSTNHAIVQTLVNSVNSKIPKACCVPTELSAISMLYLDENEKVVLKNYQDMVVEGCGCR
Protocol: All experiments were performed three independent times. FIG. 15a: Quantification of the binding level normalized to the molecular weight. […] FIG. 15b: Binding response of different concentrations of holo-Tf and/or BMP-2. […] (n=4). FIG. 15d: SPR analyses. […] Binding response is relative to BMP-2 alone. […] FIGS. 15b and 15d: One-way ANOVA was used for statistical analysis. […] Two-way ANOVA with Bonferroni post-hoc test was used for statistical analysis. […] All data are presented as mean±SD.

BMP-4 = assay: SPR steady state analysis, BMP-4 immobilised, Tfr2-ECD 10-5000 nM as analyte, 1:1 interaction assumed
Protocol: (§1) The binding analysis was performed at 37° C. at a flow rate of 30 μl/min. Each analyte was diluted in running buffer (HBS-P (pH 7.4), 150 mM NaCl, supplemented with 50 nM FeCl₃). In some experiments, 500 mM NaCl were used to reduce potential non-specific binding. […] Concentration-dependent binding of holo-Tf was performed without intermediate regeneration.
(§2) The kinetic fitting was performed by global fitting using the 1:1 Langmuir binding model (A+B=AB). Steady state analyses were conducted to determine the affinities (Kd). […] Binding and kinetic parameters were evaluated with Biacore™ T200 evaluation software 3.1.

BMP-2 [2] = molecular target: T1, BMP-2; assay: SPR steady state analysis, BMP-2 immobilised, Tfr2-ECD 10-5000 nM as analyte, 1:1 interaction assumed
Protocol: as §1, §2

BMP-4, sequence (P12644 293-408): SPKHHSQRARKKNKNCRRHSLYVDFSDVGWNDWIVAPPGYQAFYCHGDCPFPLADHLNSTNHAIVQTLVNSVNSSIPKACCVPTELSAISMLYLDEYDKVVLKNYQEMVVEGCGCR

B1: Tfr2 extracellular domain (Tfr2-ECD), murine, aa 103-798, recombinant His-tagged (receptor, not shown: large carriers)
chain: RGSCQACGDSVLVVDEDVNPEDSGRTTLYWSDLQAMFLRFLGEGRMEDTIRLTSLRERVAGSARMATLVQDILDKLSRQKLDHVWTDTHYVGLQFPDPAHANTLHWVDADGSVQEQLPLEDPEVYCPYSATGNATGKLVYAHYGRSEDLQDLKAKGVELAGSLLLVRVGITSFAQKVAVAQDFGAQGVLIYPDPSDFSQDPHKPGLSSHQAVYGHVHLGTGDPYTPGFPSFNQTQFPPVESSGLPSIPAQPISADIADQLLRKLTGPVAPQEWKGHLSGSPYRLGPGPDLRLVVNNHRVSTPISNIFACIEGFAEPDHYVVIGAQRDAWGPGAAKSAVGTAILLELVRTFSSMVSNGFRPRRSLLFISWDGGDFGSVGATEWLEGYLSVLHLKAVVYVSLDNSVLGDGKFHAKTSPLLVSLIENILKQVDSPNHSGQTLYEQVALTHPSWDAEVIQPLPMDSSAYSFTAFAGVPAVEFSFMEDDRVYPFLHTKEDTYENLHKMLRGRLPAVVQAVAQLAGQLLIRLSHDHLLPLDFGRYGDVVLRHIGNLNEFSGDLKERGLTLQWVYSARGDYIRAAEKLRKEIYSSERNDERLMRMYNVRIMRVEFYFLSQYVSPADSPFRHIFLGQGDHTLGALVDHLRMLRADGSGAASSRLTAGLGFQESRFRRQLALLTWTLQGAANALSGDVWNIDNNF
notes: Expressed in Sf9 insect cells (pOCC211-Tfr2-ECD) and purified on HisTrap; Experiments were repeated with a commercial Tfr2-ECD from Cusabio (aa 103-798); also called His-Tfr2-ECD; His-MBP-c3-Tfr2-ECD
fold binding relative to holo-Tf (BMP-2 [1]): 10 fold
Kd (BMP-4): 409 nM
Kd (BMP-2 [2]): 488 nM
